Measured values: paper PMC7116145
Blank lines part the entries; values can stand above or below the substance they belong to.

How the values were obtained:
[1] = biological target: CPTX, biotinylated on a C-terminal Avitag (immobilised in SPR) (UniProt P23435); test: SPR
[2] = biological target: NP1PTX fused to the C-terminus of a three-stranded GCN4 coiled coil (UniProt Q15818); test: SEC-MALS
[3] = biological target: CPTX-HIS, purified recombinant (UniProt P23435); test: SEC-MALS

Chain of human β-neurexin-1 LNS6 domain including spliced sequence #4 (P58400 86-295): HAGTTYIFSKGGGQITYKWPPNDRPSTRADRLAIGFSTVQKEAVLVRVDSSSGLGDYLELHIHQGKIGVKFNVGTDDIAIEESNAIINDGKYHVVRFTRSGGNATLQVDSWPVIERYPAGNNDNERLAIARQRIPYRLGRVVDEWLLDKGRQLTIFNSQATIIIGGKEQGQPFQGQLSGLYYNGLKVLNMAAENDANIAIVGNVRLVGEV

Kd [1]: 4.9 nM
Substance: human β-neurexin-1 LNS6 domain including spliced sequence #4 (from UniProt P58400 86-295) (domain or fragment)

stoichiometry N [2]: 3
Substance: NP1PTX fused to the C-terminus of a three-stranded GCN4 coiled coil (from UniProt Q15818 224-431)

stoichiometry N [3]: 6
Substance: CPTX-HIS, purified recombinant (from UniProt P23435 22-53; Q15818 224-431) (designed binder)
